In the supplement of paper PMC7125110:
± gives the standard error. This sample holds only a part of the variants without activity.

B1: glmS ribozyme (parent)
chain: AUAAAAGCGCCAGAACUACAGAAAUGUAGUUGACGAGGAGGAGGUUUAUCGAAUUUUCGGCGGAUGCCUCCAAA

What was measured:
Conditions in all cases: with glucosamine-6-phosphate
glucosamine-6-phosphate [1] = variants of: B1; assay: self-cleavage kobs at 40 uM GlcN6P; higher = faster cleavage; RNA array
Method in brief: (§1)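 E. coli RNA polymerase transcribed barcoded ribozyme variants in situ on sequenced MiSeq chips, which were tracked via a hybridised Cy3 probe at 37 °C. Tiles were imaged over ~14 h after glucosamine-6-phosphate (40 μM to 10 mM) in HEPES/KCl/Mg(OAc)2 buffer was flowed in. Normalised per-tile medians were fit to one- or two-exponential decays for kobs, and kcat and KM came from weighted Michaelis–Menten fits.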

glucosamine-6-phosphate [2] = variants of: B1; assay: self-cleavage kobs at 160 uM GlcN6P; higher = faster cleavage; RNA array
Method in brief: as §1

glucosamine-6-phosphate [3] = variants of: B1; assay: self-cleavage kobs at 640 uM GlcN6P; higher = faster cleavage; RNA array
Method in brief: as §1

glucosamine-6-phosphate [4] = variants of: B1; assay: self-cleavage kobs at 2500 uM GlcN6P; higher = faster cleavage; RNA array
Method in brief: as §1

glucosamine-6-phosphate [5] = variants of: B1; assay: self-cleavage kobs at 10000 uM GlcN6P; higher = faster cleavage; RNA array
Method in brief: as §1

Variant	self-cleavage kobs at 40 uM GlcN6P (glucosamine-6-phosphate [1])	self-cleavage kobs at 160 uM GlcN6P (glucosamine-6-phosphate [2])	self-cleavage kobs at 640 uM GlcN6P (glucosamine-6-phosphate [3])	self-cleavage kobs at 2500 uM GlcN6P (glucosamine-6-phosphate [4])	self-cleavage kobs at 10000 uM GlcN6P (glucosamine-6-phosphate [5])
A53U C71U	0.000617 ± 6e-05 s⁻¹	0.00115 ± 0.0002 s⁻¹	0.00728 ± 0.0012 s⁻¹	0.0165 ± 0.0031 s⁻¹	0.0301 ± 0.0058 s⁻¹
A53U C71G	9.68e-05 ± 1.3e-05 s⁻¹	0.000213 ± 7e-05 s⁻¹	0.000283 ± 4.7e-05 s⁻¹	0.000247 ± 5.4e-05 s⁻¹	0.00158 ± 0.00036 s⁻¹
A53G G60C	< 1e-05 s⁻¹				< 1e-05 s⁻¹
A64G C68G C71A	< 1e-05 s⁻¹	< 1e-05 s⁻¹	< 1e-05 s⁻¹		< 1e-05 s⁻¹
U55C C68A	< 1e-05 s⁻¹	< 1e-05 s⁻¹	< 1e-05 s⁻¹	< 1e-05 s⁻¹	
U54G U55G	0.00108 ± 0.00018 s⁻¹	0.00148 ± 0.00028 s⁻¹	0.00673 ± 0.0015 s⁻¹	0.0105 ± 0.0029 s⁻¹	
U55A G62A	< 1e-05 s⁻¹			< 1e-05 s⁻¹	
A48G C50G C61A	9.98e-05 ± 2.4e-05 s⁻¹				6.27e-05 ± 1.9e-05 s⁻¹
A52U G63C	< 1e-05 s⁻¹	< 1e-05 s⁻¹	< 1e-05 s⁻¹		< 1e-05 s⁻¹
U49C G59U	< 1e-05 s⁻¹	< 1e-05 s⁻¹	< 1e-05 s⁻¹		< 1e-05 s⁻¹
A52G A53C U54A	< 1e-05 s⁻¹				
U55G C58A G60C C61G C67A	< 1e-05 s⁻¹				
U56G G62U C68G	< 1e-05 s⁻¹				< 1e-05 s⁻¹
C50G G51A G59A	< 1e-05 s⁻¹				
G62C A64G	< 1e-05 s⁻¹		< 1e-05 s⁻¹		< 1e-05 s⁻¹
A48U G60U	< 1e-05 s⁻¹	< 1e-05 s⁻¹	< 1e-05 s⁻¹	< 1e-05 s⁻¹	< 1e-05 s⁻¹
G62A A64G	< 1e-05 s⁻¹				
G62A A64U	< 1e-05 s⁻¹		< 1e-05 s⁻¹		< 1e-05 s⁻¹
U57G G59C	< 1e-05 s⁻¹		< 1e-05 s⁻¹		< 1e-05 s⁻¹
G59U G63U C67A	< 1e-05 s⁻¹				< 1e-05 s⁻¹
U54G G62U	< 1e-05 s⁻¹	< 1e-05 s⁻¹	< 1e-05 s⁻¹	< 1e-05 s⁻¹	< 1e-05 s⁻¹
U49A G62U	< 1e-05 s⁻¹				< 1e-05 s⁻¹

Variant	self-cleavage kobs at 40 uM GlcN6P (glucosamine-6-phosphate [1])	self-cleavage kobs at 160 uM GlcN6P (glucosamine-6-phosphate [2])	self-cleavage kobs at 640 uM GlcN6P (glucosamine-6-phosphate [3])	self-cleavage kobs at 2500 uM GlcN6P (glucosamine-6-phosphate [4])	self-cleavage kobs at 10000 uM GlcN6P (glucosamine-6-phosphate [5])
U49A G62C	< 1e-05 s⁻¹				< 1e-05 s⁻¹
A48C U69G C70U	< 1e-05 s⁻¹			< 1e-05 s⁻¹	< 1e-05 s⁻¹
A48U A53C	< 1e-05 s⁻¹	< 1e-05 s⁻¹			
G60A C67U	< 1e-05 s⁻¹	< 1e-05 s⁻¹			
G60U C67G	< 1e-05 s⁻¹	< 1e-05 s⁻¹	< 1e-05 s⁻¹	< 1e-05 s⁻¹	< 1e-05 s⁻¹
A52C G62C	< 1e-05 s⁻¹	< 1e-05 s⁻¹	< 1e-05 s⁻¹	< 1e-05 s⁻¹	< 1e-05 s⁻¹
C61U C71A	< 1e-05 s⁻¹	< 1e-05 s⁻¹	< 1e-05 s⁻¹	< 1e-05 s⁻¹	
A52C G60U	< 1e-05 s⁻¹				< 1e-05 s⁻¹
U65A C70U	0.000142 ± 1.8e-05 s⁻¹	0.00024 ± 4.6e-05 s⁻¹	0.000871 ± 0.00012 s⁻¹	0.00273 ± 0.0009 s⁻¹	0.00403 ± 0.0008 s⁻¹
G63U U65G	< 1e-05 s⁻¹	< 1e-05 s⁻¹	< 1e-05 s⁻¹	< 1e-05 s⁻¹	< 1e-05 s⁻¹
A52C U56A	< 1e-05 s⁻¹		< 1e-05 s⁻¹		
A48U U56A C58A	< 1e-05 s⁻¹				
C50U U54A	< 1e-05 s⁻¹	< 1e-05 s⁻¹			5.02e-05 ± 9.2e-06 s⁻¹
A48C C68A	< 1e-05 s⁻¹				< 1e-05 s⁻¹
A48C C70A	< 1e-05 s⁻¹		< 1e-05 s⁻¹		
U55A C71U	0.00109 ± 0.00019 s⁻¹	0.00212 ± 0.00076 s⁻¹	0.0121 ± 0.0034 s⁻¹	0.00755 ± 0.0025 s⁻¹	0.0549 ± 0.013 s⁻¹
U49C U57C	< 1e-05 s⁻¹	< 1e-05 s⁻¹	< 1e-05 s⁻¹		< 1e-05 s⁻¹
C50U C58U	< 1e-05 s⁻¹		< 1e-05 s⁻¹		< 1e-05 s⁻¹
C58G G60C	< 1e-05 s⁻¹	< 1e-05 s⁻¹	< 1e-05 s⁻¹	< 1e-05 s⁻¹	< 1e-05 s⁻¹
A48G U54A C61U	< 1e-05 s⁻¹				
U49C C70U	< 1e-05 s⁻¹		< 1e-05 s⁻¹		< 1e-05 s⁻¹
A48C C71A	< 1e-05 s⁻¹	< 1e-05 s⁻¹		3.84e-05 ± 1.4e-05 s⁻¹	4.23e-05 ± 1e-05 s⁻¹
